Here are results for one substance from publication PMC3097204.

The target of experiment [1] is mature SsTroA domain (residues 36–317) (Streptococcus suis serotype 2 (strain 05ZYH33)). The experiment in a line: SEC; analytical FPLC Superdex 200 profile of purified SsTroA.
The target is the same in experiment [2]. The experiment in a line: AUC; sedimentation velocity profiles analysed with SEDFIT; 1 mg/ml protein in 20 mM Tris-HCl (pH 8.0), 50 mM NaCl; 50,000 rpm, 20°C; monomer and dimer.

In experiment [1], “mature SsTroA domain (residues 36–317) (domain or fragment)” returned a stoichiometry N of 2. For the same substance, in experiment [2], the percent of the total protein in the dimer peak was 6.8% and the stoichiometry N came to 2.
